By IC50 is commonly meant the concentration at which inhibition is half-maximal.

One test relates to NMDAR. The test can be described thus: NMDAR EPSCs in DCN cartwheel cells in brain slices, ZX1 potentiation. It is filed as cell-based, mice. The conditions noted are these: nimodipine 20 μM at least 20 minutes prior to recordings; ZX1 100 μM.
For test [1], the target named is ZnT1 in mouse brain slices (mouse) (UniProt Q60738). In words: cell-based or functional assay.
A further test addresses T1, GluN1/2A receptors (Rattus norvegicus, UniProt Q00959).
T1 construct: expressed in transfected cells; host or cells: human embryonic kidney tSA201 cells
The test can be described thus: Zinc inhibition of glutamate-evoked currents in tSA201 cells transfected with GluN1/GluN2A. Type of test: cell-based. The following applies: vehicle, 1 mM glutamate steady-state current, read-out: IC50 for zinc block in vehicle treated cells. On the procedure:
Human embryonic kidney tSA201 cells were maintained in DMEM supplemented with 10% fetal bovine serum and 1% GlutaMAX, as previously described (Glasgow and Johnson, 2014). Cells were plated in 35 mm petri dishes with three 15 mm glass coverslips treated with poly D-lysine (0.1 mg/ml) and rat-tail collagen (0.1 mg/ml) at a density of 1×10^5 cells/dish. Eighteen to 30 hours after plating, the cells were co-transfected using FuGENE 6 Transfection Reagent with cDNA encoding enhanced green fluorescent protein (eGFP), for identification of transfected cells, and WT rat NMDAR subunits GluN1-1a (GluN1; GenBank X63255) and GluN2A (GenBank M91561 in pcDNA1). GluN1-1 a and eGFP were expressed using a specialized pCl-neo vector with cDNA encoding eGFP inserted between the CMV promoter and the GluN1 open reading frame (Yi et al., 2018). […]
Whole-cell voltage-clamp recordings from tSA201 cells were performed 18-30 hours after transfection. […] Whole-cell currents were recorded using an Axopatch 200A patch-clamp amplifier (Molecular Devices), low-pass filtered at 5 kHz, and sampled at 20 kHz in pClamp10.7 (Molecular Devices). In all recordings from tSA201 cells, series resistance was compensated 85-90% and an empirically determined −6 mV liquid junction potential between the intracellular pipette solution and the extracellular recording solution was corrected. […]

Test [2] addresses T2, GluN2A subunit of NMDAR in rat cortical cultures (rat, UniProt Q00959 23-1464).
T2 construct: whole, on cells; Endogenous protein in neurons, detected with a mouse anti-GluN2A antibody in the PLA
In words: proximity ligation assay in rat cortical cultures (FIG. 3A legend).

T1 sequence (Q00959 23-1464, other chains not shown): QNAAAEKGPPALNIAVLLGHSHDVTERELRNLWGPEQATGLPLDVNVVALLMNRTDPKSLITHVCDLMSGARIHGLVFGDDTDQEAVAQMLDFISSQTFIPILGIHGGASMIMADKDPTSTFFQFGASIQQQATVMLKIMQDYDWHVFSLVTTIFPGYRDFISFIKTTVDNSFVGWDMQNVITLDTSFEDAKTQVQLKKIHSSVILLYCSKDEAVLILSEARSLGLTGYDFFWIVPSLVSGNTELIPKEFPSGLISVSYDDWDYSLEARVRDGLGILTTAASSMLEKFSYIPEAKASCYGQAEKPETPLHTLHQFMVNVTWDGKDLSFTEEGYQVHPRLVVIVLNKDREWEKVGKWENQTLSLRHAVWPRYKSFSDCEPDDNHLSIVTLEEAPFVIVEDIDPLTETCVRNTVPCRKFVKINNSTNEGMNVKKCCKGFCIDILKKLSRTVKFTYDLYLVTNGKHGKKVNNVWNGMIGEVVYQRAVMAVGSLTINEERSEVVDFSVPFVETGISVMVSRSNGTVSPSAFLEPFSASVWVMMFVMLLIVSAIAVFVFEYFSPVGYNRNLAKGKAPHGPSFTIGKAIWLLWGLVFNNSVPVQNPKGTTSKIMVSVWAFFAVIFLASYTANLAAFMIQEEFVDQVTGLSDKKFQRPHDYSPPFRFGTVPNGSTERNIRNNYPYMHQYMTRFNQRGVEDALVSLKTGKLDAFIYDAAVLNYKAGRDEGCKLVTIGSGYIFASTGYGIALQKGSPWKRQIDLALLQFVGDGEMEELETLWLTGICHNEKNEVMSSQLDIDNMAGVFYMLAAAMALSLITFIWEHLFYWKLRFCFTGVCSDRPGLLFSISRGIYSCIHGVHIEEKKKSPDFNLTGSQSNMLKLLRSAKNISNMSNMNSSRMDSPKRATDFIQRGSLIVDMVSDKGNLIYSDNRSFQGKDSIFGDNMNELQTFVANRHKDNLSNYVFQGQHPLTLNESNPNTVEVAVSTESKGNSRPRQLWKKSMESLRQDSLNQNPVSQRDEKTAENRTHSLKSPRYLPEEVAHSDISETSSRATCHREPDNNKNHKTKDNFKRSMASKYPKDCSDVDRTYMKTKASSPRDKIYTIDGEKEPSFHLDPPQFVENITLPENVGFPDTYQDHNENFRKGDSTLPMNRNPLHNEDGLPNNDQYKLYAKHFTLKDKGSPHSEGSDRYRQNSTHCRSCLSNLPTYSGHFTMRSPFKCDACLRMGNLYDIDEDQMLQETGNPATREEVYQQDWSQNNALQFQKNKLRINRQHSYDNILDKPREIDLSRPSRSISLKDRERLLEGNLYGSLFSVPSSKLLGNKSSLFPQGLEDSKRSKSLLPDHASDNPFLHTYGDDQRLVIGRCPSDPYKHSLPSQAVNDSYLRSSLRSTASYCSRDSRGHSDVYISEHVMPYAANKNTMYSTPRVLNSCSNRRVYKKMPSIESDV
T2 sequence (Q00959 23-1464): as the sequence (Q00959 23-1464, other chains not shown) above

In the case of `COCCOC(=O)C1=C(C)NC(C)=C(C(=O)OC(C)C)C1c1cccc([N+](=O)[O-])c1` (centres unmarked) [Nimodipine, reference compound], in the test on NMDAR, the “ZX1 potentiation of NMDAR EPSCs in nimodipine-treated slices” value was determined as 23.6±6.9%.
As for “GluN2A subunit of NMDAR in mouse brain slices (from UniProt P35436 23-1464) (receptor)”, in test [1], the Average effect of ZX1 on L2/3 PN NMDAR Lev-EPSCs amplitudes normalized to control, auditory cortex slices incubated with scramble was 159%; the Average effect of ZX1 on L2/3 PN NMDAR Lev-EPSCs amplitudes normalized to control, auditory cortex slices incubated with the peptide was 99%; the ZX1 potentiation of NMDAR EPSCs, DCN cartwheel cells, 100 Hz, slices treated with N2AZ turned out to be 1.95%; the ZX1 potentiation of NMDAR-mediated synaptic currents, DCN cartwheel cells, 20 Hz, slices treated with N2AZ (3 µM) is 19.4%. Moreover, the ZX1 potentiation of NMDAR-mediated synaptic currents, DCN cartwheel cells, 20 Hz, slices treated with scN2AZ (3 µM) in test [1] was found to be 47.3%.
Consider `[Zn+2]` [zinc], for which, at GluN1/2A receptors, the IC50 stood at 0.0218 ± 0.00209 µM.

B1: ZnT1 in rat cortical cultures (other, UniProt Q62720 1-507, looked up)
chain: MGCWGRNRGRLLCMLLLTFMFMVLEVVVSRVTASLAMLSDSFHMLSDVLALVVALVAERFARRTHATQKNTFGWIRAEVMGALVNAIFLTGLCFAILLEAVERFIEPHEMQQPLVVLSVGVAGLLVNVLGLCLFHHHSGEGQGAGHGHSHGHGHGHLAKGARKAGRAGGEAGAPPGRAPDQEPDQEETNTLVANTSNSNGLKADQAEPEKLRSDDPVDVQVNGNLIQESDSLESEDNRAGQLNMRGVFLHVLGDALGSVIVVVNALVFYFSWKGCTEDDFCVNPCFPDPCKSSVELMNSTQAPMHEAGPCWVLYLDPTLCIIMVCILLYTTYPLLKESALILLQTVPKQIDIKHLVKELRDVEGVEEVHELHVWQLAGSRIIATAHIKCEDPASYMQVAKTIKDVFHNHGIHATTIQPEFASVGSKSSVVPCELACRTQCALKQCCGTRPQVHSGKEAEKAPTVSISCLELSENLEKKPRRTKAEGSVPAVVIEIKNVPNKQPESSL
notes: whole, on cells; Endogenous protein in neurons, detected with a rabbit anti-ZnT1 antibody in the PLA; also called zinc transporter 1
B1: the binding result in test [2] is “binds”.

Source of the values: patent US20230034660A1, “PEPTIDES THAT ENHANCE NMDA RECEPTOR FUNCTION AND USE THEREOF” (University of Pittsburgh - Of the Commonwealth System of …, priority 2019, published 2023).
